Reference: US20110313230A1

Experiments:
[1] = molecular target: wild-type EGFR (human) (UniProt P00533); assay: Scatchard, 125I-528 on A431 cells
[2] = molecular target: de2-7 EGFR (human) (UniProt P00533); assay: immunohistochemistry, glioblastoma pre-typed: EGFR amplified, de2-7 EGFR expressed
[3] = molecular target: wild-type EGFR (human) (UniProt P00533); assay: immunohistochemistry, glioblastoma pre-typed: EGFR amplified, no de2-7 EGFR expression

mAb528 (antibody)
receptors per cell (receptors per cell) [1]: 2e+06
percent of immunoreactive cells [2]: > 75%
percent of immunoreactive cells [3]: > 75%
